The conditions of series [1]: in vivo.
For series [2] the following is noted: in vivo. This is another data set of the same source.
Series [3] is described as follows: Glucose clamp study after inhalation of Technosphere/Insulin: glucose infusion rate (biological action), tolerability. In kind it is in vivo, human. Conditions: for T-50% (time from baseline to half-maximal after passing Tmax), calculated on glucose infusion rate / Tmax, calculated on glucose infusion rate / T50% (time from baseline to half-maximal values), calculated on glucose infusion rate: glucose clamp; for T50% (time from baseline to half-maximal values), calculated on glucose infusion rate: healthy male volunteers. An excerpt:
(§1) The volunteers were in good health, as judged by physical examination, age: 18 to 40 years, body mass index: 18 to 26 kg/m^2, capability to reach peak inspiratory flow of ≧4 L/sec measured by a computer assisted spirometry and a FEV1 (FEV1=forced expiratory volume in one second) equal to or greater than 80% of predicted normal.
(§2) On the morning of the study days, the subjects came to the hospital (fasting, except for water, from midnight onward) at 7:30 a.m. The subjects were restricted from excessive physical activities and an intake of alcohol for 24 hours before each treatment day. They were randomly assigned to one of the three treatment arms. […] Blood glucose was kept constant at a level of 90 mg/dL throughout the glucose clamp by a glucose controlled infusion system (BIOSTATOR™, Life Science Instruments, Miles Laboratories, Elkhart, Ind.). The glucose clamp algorithm was based on the actual measured blood glucose concentration and the grade of variability in the minutes before to calculate the glucose infusion rates for keeping the blood glucose concentration constant. […] The duration of the clamp experiment was 6 hours from time point 0. Glucose infusion rates, blood glucose, serum insulin and C-peptide were measured.

The nature of series [4]: Glucose clamp study: serum insulin concentrations, bioavailability. In kind it is in vivo, human.
Description: as §1
as §2, with “0.” for “0. Glucose infusion rates, blood glucose, serum insulin and C-peptide were measured.”

Series [5] is described as follows: Time to peak blood concentration and uptake rate after pulmonary delivery (general statements).

These results are taken from patent publication US20060153778A1 (MannKind Corporation, priority 2005, published 2006).

Read-outs that look alike come from different tables or passages of the source.

For the compound `O=C(O)/C=C/C(=O)NCCCC[C@@H]1NC(=O)[C@H](CCCCNC(=O)/C=C/C(=O)O)NC1=O` [FDKP, fumaryl diketopiperazine], in series [1], the “Transit from the lungs” value was “kinetics similar to that of insulin”.
With `CCNC(=O)[C@@H]1CCCN1C(=O)[C@H](CCCNC(=N)N)NC(=O)[C@H](CC(C)C)NC(=O)[C@@H](CC(C)C)NC(=O)[C@H](Cc1ccc(O)cc1)NC(=O)[C@H](CO)NC(=O)[C@H](Cc1c[nH]c2ccccc12)NC(=O)[C@H](Cc1c[nH]cn1)NC(=O)[C@@H]1CCC(=O)N1` [leuprolide], the “Time to peak blood concentrations” value in series [2] was 3 to 10 min.
Still for that read-out and setting: the value for “parathyroid hormone 1-34: peptide complexed with FDKP for pulmonary delivery” was 3 to 10 min.
As for “insulin: insulin given as 5 IU intravenous or 10 IU subcutaneous injection, or by the pulmonary route without fumaryl diketopiperazine; comparator”, the “T to baseline, calculated on glucose infusion rate” value in series [3] (5 IU insulin intravenous, clamp duration 6 hours) was 240 min. Besides, in series [3] (5 IU insulin intravenous), the “T-50% (time from baseline to half-maximal after passing Tmax), calculated on glucose infusion rate” value is 1.37 h; the “Tmax, calculated on glucose infusion rate” value is 0.233 h; the “T50% (time from baseline to half-maximal values), calculated on glucose infusion rate” value is 9 min. In series [3] (10 IU insulin subcutaneous), the “T-50% (time from baseline to half-maximal after passing Tmax), calculated on glucose infusion rate” value is 4 h; the “Tmax, calculated on glucose infusion rate” value is 2.72 h; the “T50% (time from baseline to half-maximal values), calculated on glucose infusion rate” value was 60 min. Further, in series [4] (5 IU insulin intravenous), the “T50% (time from baseline to half-maximal values), calculated on insulin levels” value is reported as 2 min; the “T to baseline, calculated on insulin levels” value is listed as 60 min; the “T-50% (time from baseline to half-maximal after passing Tmax), calculated on insulin levels” value was 0.1 h; the “Tmax, calculated on insulin levels” value is 0.083 h. In addition, in series [4] (10 IU insulin subcutaneous), the “T to baseline, calculated on insulin levels” value is 360 min; the “T-50% (time from baseline to half-maximal after passing Tmax), calculated on insulin levels” value was 4.17 h; the “Tmax, calculated on insulin levels” value is 2.02 h. In series [5] (pulmonary route without fumaryl diketopiperazine), the “Time to peak blood concentrations” value was in the range of 25 to 60 min. In addition, in series [5] (subcutaneous injection), the “Time to peak blood level” value lay in the range of 30 to 90 min.
On to salmon calcitonin, for which the “Time to peak blood concentrations” value in series [2] is 3 to 10 min.
